B1: GAGE1 (parent)
chain: QPPEMIGPMRPEQFSDEVEPATPE
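Further: lentivirally expressed fusions sorted by FACS into six bins by GFP to DsRed ratio, PSI derived from sequencing read proportions per bin multiplied by bin number.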

In this series the parent is B1. The series can be described thus: protein stability index of a GFP-peptide fusion (GPS, HEK-293T) (PSI 1-6); higher = more stable. Conditions: c terminus: a fixed tail appended.
Consider QPPEMQGPMRPEQFSDEVEPATPE [I6Q], for which the protein stability index was 5.32.
Take QPPEMGGPMRPEQFSDEVEPATPE [I6G]: the protein stability index turned out to be 5.45.
The value for QPPEMRGPMRPEQFSDEVEPATPE [I6R] was 5.86; that for QPPEMEGPMRPEQFSDEVEPATPE [I6E] was 5.81; that for QPPEMFGPMRPEQFSDEVEPATPE [I6F] was 5.89.
The value for QPPEMPGPMRPEQFSDEVEPATPE [I6P] was 5.52; that for QPPEMMGPMRPEQFSDEVEPATPE [I6M] was 5.59.
Take QPPEMNGPMRPEQFSDEVEPATPE [I6N]: the protein stability index came to 5.72.
The value for QPPEMCGPMRPEQFSDEVEPATPE [I6C] was 5.91.
In the case of QPPEMHGPMRPEQFSDEVEPATPE [I6H], the protein stability index was 5.72.
With QPPEMLGPMRPEQFSDEVEPATPE [I6L], the protein stability index was 5.64.
With QPPEMKGPMRPEQFSDEVEPATPE [I6K], the protein stability index was 5.78.
In the case of QPPEMDGPMRPEQFSDEVEPATPE [I6D], the protein stability index stood at 5.79.
The value for QPPEMAGPMRPEQFSDEVEPATPE [I6A] was 5.59; that for QPPEMSGPMRPEQFSDEVEPATPE [I6S] was 6; that for QPPEPIGPMRPEQFSDEVEPATPE [M5P] was 5.9.
The value for QPPETIGPMRPEQFSDEVEPATPE [M5T] was 5.19.
The value for QPPEIIGPMRPEQFSDEVEPATPE [M5I] was 4.57; that for QPPEFIGPMRPEQFSDEVEPATPE [M5F] was 5.32; that for QPPEWIGPMRPEQFSDEVEPATPE [M5W] was 5.54.
QPPEHIGPMRPEQFSDEVEPATPE [M5H]: the protein stability index stood at 5.5.
The value for QPPEEIGPMRPEQFSDEVEPATPE [M5E] was 5.15; that for QPPEAIGPMRPEQFSDEVEPATPE [M5A] was 5.68.
The value for QPPEKIGPMRPEQFSDEVEPATPE [M5K] was 5.27; that for QPPEVIGPMRPEQFSDEVEPATPE [M5V] was 4.27.
The value for QPPEQIGPMRPEQFSDEVEPATPE [M5Q] was 5.25.
On to QPPESIGPMRPEQFSDEVEPATPE [M5S], for which the protein stability index came to 3.55.
The value for QPPERIGPMRPEQFSDEVEPATPE [M5R] was 5.81; that for QPPELIGPMRPEQFSDEVEPATPE [M5L] was 4.55.
Consider QPPECIGPMRPEQFSDEVEPATPE [M5C], for which the protein stability index is 4.73.
The value for QPPEGIGPMRPEQFSDEVEPATPE [M5G] was 5.45; that for QPPENIGPMRPEQFSDEVEPATPE [M5N] was 5; that for QPPEDIGPMRPEQFSDEVEPATPE [M5D] was 5.02.
The value for QPPEYIGPMRPEQFSDEVEPATPE [M5Y] was 4.99; that for QEPEMIGPMRPEQFSDEVEPATPE [P2E] was 4.88.
The value for QSPEMIGPMRPEQFSDEVEPATPE [P2S] was 4.65; that for QVPEMIGPMRPEQFSDEVEPATPE [P2V] was 4.4; that for QDPEMIGPMRPEQFSDEVEPATPE [P2D] was 4.87.
As for QRPEMIGPMRPEQFSDEVEPATPE [P2R], the protein stability index is 4.8.
For the variant QYPEMIGPMRPEQFSDEVEPATPE [P2Y], the protein stability index came to 4.8.
The value for QAPEMIGPMRPEQFSDEVEPATPE [P2A] was 4.8; that for QFPEMIGPMRPEQFSDEVEPATPE [P2F] was 5.11.
The value for QNPEMIGPMRPEQFSDEVEPATPE [P2N] was 5.34; that for QMPEMIGPMRPEQFSDEVEPATPE [P2M] was 4.59; that for QQPEMIGPMRPEQFSDEVEPATPE [P2Q] was 4.64.
For the variant QHPEMIGPMRPEQFSDEVEPATPE [P2H], the protein stability index stood at 5.25.
Take QCPEMIGPMRPEQFSDEVEPATPE [P2C]: the protein stability index is 5.32.
On to QTPEMIGPMRPEQFSDEVEPATPE [P2T], for which the protein stability index came to 5.09.
In the case of QIPEMIGPMRPEQFSDEVEPATPE [P2I], the protein stability index came out at 4.28.
Regarding QLPEMIGPMRPEQFSDEVEPATPE [P2L], the protein stability index is 4.88.
With QKPEMIGPMRPEQFSDEVEPATPE [P2K], the protein stability index worked out at 4.99.
For QWPEMIGPMRPEQFSDEVEPATPE [P2W], the protein stability index was 4.48.
Turning to QGPEMIGPMRPEQFSDEVEPATPE [P2G], the protein stability index stood at 5.6.
The value for QPPDMIGPMRPEQFSDEVEPATPE [E4D] was 5.65; that for QPPNMIGPMRPEQFSDEVEPATPE [E4N] was 5.48; that for QPPGMIGPMRPEQFSDEVEPATPE [E4G] was 5.72.
The value for QPPVMIGPMRPEQFSDEVEPATPE [E4V] was 5.41; that for QPPAMIGPMRPEQFSDEVEPATPE [E4A] was 5.75; that for QPPHMIGPMRPEQFSDEVEPATPE [E4H] was 5.6.
The value for QPPKMIGPMRPEQFSDEVEPATPE [E4K] was 5.46; that for QPPRMIGPMRPEQFSDEVEPATPE [E4R] was 5.74; that for QPPIMIGPMRPEQFSDEVEPATPE [E4I] was 5.52.
Take QPPFMIGPMRPEQFSDEVEPATPE [E4F]: the protein stability index is 5.62.
As to QPPLMIGPMRPEQFSDEVEPATPE [E4L], the protein stability index came out at 5.54.
The value for QPPSMIGPMRPEQFSDEVEPATPE [E4S] was 5.2; that for QPPQMIGPMRPEQFSDEVEPATPE [E4Q] was 5.68; that for QPPWMIGPMRPEQFSDEVEPATPE [E4W] was 5.61.
Consider QPPTMIGPMRPEQFSDEVEPATPE [E4T], for which the protein stability index is 5.56.
In the case of QPPMMIGPMRPEQFSDEVEPATPE [E4M], the protein stability index worked out at 5.65.
The value for QPPPMIGPMRPEQFSDEVEPATPE [E4P] was 5.56.
The value for QPPCMIGPMRPEQFSDEVEPATPE [E4C] was 5.58; that for QPPYMIGPMRPEQFSDEVEPATPE [E4Y] was 5.75.
WPPEMIGPMRPEQFSDEVEPATPE [Q1W]: the protein stability index was 5.49.
The value for CPPEMIGPMRPEQFSDEVEPATPE [Q1C] was 5.33; that for LPPEMIGPMRPEQFSDEVEPATPE [Q1L] was 5.07.
The value for EPPEMIGPMRPEQFSDEVEPATPE [Q1E] was 5.01; that for FPPEMIGPMRPEQFSDEVEPATPE [Q1F] was 4.95.
The value for APPEMIGPMRPEQFSDEVEPATPE [Q1A] was 4.84; that for VPPEMIGPMRPEQFSDEVEPATPE [Q1V] was 4.68.
In the case of RPPEMIGPMRPEQFSDEVEPATPE [Q1R], the protein stability index was 5.04.
With SPPEMIGPMRPEQFSDEVEPATPE [Q1S], the protein stability index came out at 4.89.
The value for IPPEMIGPMRPEQFSDEVEPATPE [Q1I] was 4.78; that for MPPEMIGPMRPEQFSDEVEPATPE [Q1M] was 5.27.
The value for GPPEMIGPMRPEQFSDEVEPATPE [Q1G] was 4.64; that for TPPEMIGPMRPEQFSDEVEPATPE [Q1T] was 4.94; that for YPPEMIGPMRPEQFSDEVEPATPE [Q1Y] was 4.8.
As for HPPEMIGPMRPEQFSDEVEPATPE [Q1H], the protein stability index turned out to be 5.06.
In the case of KPPEMIGPMRPEQFSDEVEPATPE [Q1K], the protein stability index was determined as 4.57.
The value for NPPEMIGPMRPEQFSDEVEPATPE [Q1N] was 5.06.
As for DPPEMIGPMRPEQFSDEVEPATPE [Q1D], the protein stability index was found to be 5.42.
Consider QPDEMIGPMRPEQFSDEVEPATPE [P3D], for which the protein stability index was determined as 5.75.
Take QPKEMIGPMRPEQFSDEVEPATPE [P3K]: the protein stability index was found to be 5.64.
For the variant QPVEMIGPMRPEQFSDEVEPATPE [P3V], the protein stability index turned out to be 4.83.
Regarding QPNEMIGPMRPEQFSDEVEPATPE [P3N], the protein stability index turned out to be 5.4.

Source of the values: the supplement of paper PMC10567573.
